# Results as given in article PMC10593839, “The liver microenvironment orchestrates FGL1-mediated immune escape and progression of metastatic colorectal cancer” (Nature Communications, 2023).
# T1: recombinant hLAG-3 (lymphocyte activating 3) (human, UniProt P18627 23-450)
# T1 construct: Bought recombinant protein; source: bought: ABclonal Technology
# T1 sequence (looked up): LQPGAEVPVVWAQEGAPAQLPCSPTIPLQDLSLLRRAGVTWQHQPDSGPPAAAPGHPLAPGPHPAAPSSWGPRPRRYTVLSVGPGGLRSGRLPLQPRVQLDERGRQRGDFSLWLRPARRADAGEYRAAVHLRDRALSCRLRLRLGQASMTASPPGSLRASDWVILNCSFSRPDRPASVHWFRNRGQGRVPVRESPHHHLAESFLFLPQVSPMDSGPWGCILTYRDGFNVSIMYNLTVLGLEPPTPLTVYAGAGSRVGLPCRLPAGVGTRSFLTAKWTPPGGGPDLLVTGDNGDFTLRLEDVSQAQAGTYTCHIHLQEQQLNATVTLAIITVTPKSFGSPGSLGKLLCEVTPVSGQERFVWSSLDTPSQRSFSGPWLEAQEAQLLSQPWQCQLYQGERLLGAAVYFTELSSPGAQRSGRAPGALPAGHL
# Target: T1, recombinant hLAG-3 (lymphocyte …)
# Assay: ELISA; recombinant hLAG-3 (1 μg/mL) coated on ELISA microwells; different amounts of recombinant hFGL1 incubated for 1 h; detected with HRP-conjugated anti-hFGL1 antibody, OD 450 nm
# Conditions: both partners purified
binder,measurement,value
"recombinant hFGL1 (fibrinogen-like protein 1) (ligand, human, UniProt Q08830 23-312, looked up, fibrinogen-like protein 1 (FGL1), human, recombinant; Bought recombinant protein; also called HFREP1; source: bought: ABclonal Technology) LEDCAQEQMRLRAQVRLLETRVKQQQVKIKQLLQENEVQFLDKGDENTVIDLGSKRQYADCSEIFNDGYKLSGFYKIKPLQSPAEFSVYCDMSDGGGWTVIQRRSDGSENFNRGWKDYENGFGNFVQKHGEYWLGNKNLHFLTTQEDYTLKIDLADFEKNSRYAQYKNFKVGDEKNFYELNIGEYSGTAGDSLAGNFHPEVQWWASHQRMKFSTWDRDHDNYEGNCAEEDQSGWWFNRCHSANLNGVYYSGPYTAKTDNGIVWYTWHGWWYSLKSVVMKIRPNDFIPNVI",binding result,binds
